Reference: article PMC12623744 (Scientific Reports, 2025)
Like-named read-outs stand apart in the source and are kept apart here.

T1: HVEM-His protein (Homo sapiens, UniProt Q92956)
T1 construct: purchased ACROBiosystems
T1 sequence (Q92956 39-283): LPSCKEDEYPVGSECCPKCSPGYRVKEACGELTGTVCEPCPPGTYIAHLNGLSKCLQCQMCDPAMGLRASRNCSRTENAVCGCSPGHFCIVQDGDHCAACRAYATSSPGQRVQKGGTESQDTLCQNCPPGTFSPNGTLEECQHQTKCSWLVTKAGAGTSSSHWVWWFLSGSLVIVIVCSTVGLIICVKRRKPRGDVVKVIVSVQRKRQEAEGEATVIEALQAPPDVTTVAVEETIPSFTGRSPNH

B1: HVEM-His protein (receptor, UniProt Q92956 39-202, looked up)
chain: LPSCKEDEYPVGSECCPKCSPGYRVKEACGELTGTVCEPCPPGTYIAHLNGLSKCLQCQMCDPAMGLRASRNCSRTENAVCGCSPGHFCIVQDGDHCAACRAYATSSPGQRVQKGGTESQDTLCQNCPPGTFSPNGTLEECQHQTKCSWLVTKAGAGTSSSHWV
modifications: labelled with RED-tris-NTA 2nd Generation dye on the His tag (spectral shift only)
notes: Herpes virus entry mediator (HVEM); No catalogue number printed; also called herpes virus entry mediator; source: bought: ACROBiosystems
B2: LIGHT: LIGHT protein, TNFSF ligand of HVEM (protein)
chain: MEESVVRPSVFVVDGQTDIPFTRLGRSHRRQSCSVARVGLGLLLLLMGAGLAVQGWFLLQLHWRLGEMVTRLPDGPAGSWEQLIQERRSHEVNPAAHLTGANSSLTGSGGPLLWETQLGLAFLRGLSYHDGALVVTKAGYYYIYSKVQLGGVGCPLGLASTITHGLYKRTPRYPEELELLVSQQSPCGRATSSSRVWWDSSFLGGVVHLEAGEKVVVRVLDERLVRLRDGTRSYFGAFMV

Assays:
[1] = molecular target: LIGHT protein (UniProt O43557 1-240); test: spectral shift (SpS); Monolith X; HVEM-His labelled with His-Tag Labeling Kit RED-tris-NTA 2nd Generation, final 50 nM; peptides 2 µM to 6.1 pM; PBS-T (0.05% Tween-20, 0.3 M NaCl, pH 7.4); fluorescence ratio 670/650 nm; 25 °C; apparent Kd (peptides aggregated at higher concentrations); settings: both partners purified
[2] = molecular target: T1, HVEM-His protein; test: Spectral shift (SpS) affinity of peptides to HVEM; format: binding; settings: spectral shift (Monolith X, 670/650 nm), 50 nM RED-tris-NTA labelled HVEM-His, ligand 2 µM to 6.1 pM, PBS-T pH 7.4 with 0.3 M NaCl, 25 °C; mean of triplicate; apparent, approximate value only
Procedure: Based on the computer analyses conducted for the designed peptides in complex with the HVEM, five compounds – peptides light1, light2, light3, light4, and light3_E178L were selected for experimental validation and their affinity to HVEM was evaluated using SpS.Fluorescence intensity was measured at 670 and 650 nm (Figure S4). […] Due to the fact that peptides at higher concentrations aggregated, it was not possible to fully determine the Kd. Therefore, only the apparent Kd values were determined and were used for HVEM binding strength comparison. Note that apparent Kd is only approximate value and should be used only for qualitative comparison.
SpS experiments were conducted using the Monolith X instrument (Nanotemper, Munich, Germany). Protein labelling was performed using the His-Tag Labeling Kit RED-tris-NTA 2nd Generation (Nanotemper, Munich, Germany). To prepare the fluorescent dye solution at concentration 0.1 µM, 2 µL of a 5 µM dye stock was diluted in 98 µL of deionized water. […] The mixtures were loaded into Monolith X-compatible capillary tubes, and fluorescence ratios (670/650 nm) were measured at 40% excitation power and average IR laser power at a temperature of 25 °C. Data were analyzed using MO.Control 2 software (version 2.5.4, NanoTemper, Munich, Germany). […]

[3] = molecular target: T1, HVEM-His protein; settings: SpS technique; previously determined by the authors; read-out: Kd of LIGHT binding to HVEM; cited from earlier work
[4] = molecular target: HVEM; design: method as in 2 sources, ref 11 = [11]; PMID 25087510; doi:10.1016/j.str.2014.06.013; 11. Liu W Mechanistic basis for functional promiscuity in the TNF and TNF receptor superfamilies: structure of the LIGHT:DcR3 assembly Structure 2014 22 1252 10.1016/j.str.2014.06.013 25087510 PMC4163 ||| ref 41 = [41]; PMID 20175993; doi:10.1016/j.bbrc.2010.02.119; 41. Morishige T Creation of a lysine-deficient LIGHT mutant with the capacity for site-specific pegylation and low affinity for a decoy receptor Biochem. Biophys. Res. Commun. 2010 393 888 893 10.1016; settings: other research group, read-out: Kd of HVEM/LIGHT complex, cited from earlier work

| Molecule | Kd [1] [nM] | Kd [2] [nM] | Kd [3] [nM] | Kd ([4]; ref 11) [nM] | Kd ([4]; ref 41) [nM] |
| --- | --- | --- | --- | --- | --- |
| B1 | 920 | – | – | – | – |
| B2 | – | 920 | 920 | 18.7 | 1.5 |
